Data published in patent publication US20250326842A1 (BEIGENE SWITZERLAND, published 2025).
Substitutions are numbered along the chain they refer to. Where two headings read alike, the source gives them in different places. Each block holds one binder with its values, some of them ahead of it.

Legend:
[1] = molecular target: T1, human PVRIG recombinant protein (human, UniProt Q6DKI7 41-171); assay: SPR, antibody captured via anti-human Fc, human PVRIG analyte
T1 construct: also called human PVRIG protein; recombinant human antigen PVRIG
T1 sequence: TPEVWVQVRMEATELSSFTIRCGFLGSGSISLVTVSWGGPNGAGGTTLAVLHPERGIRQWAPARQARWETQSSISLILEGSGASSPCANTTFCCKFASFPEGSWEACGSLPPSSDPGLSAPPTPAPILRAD
Source text: For affinity determination, antibodies were captured by anti-human Fe antibodies, and used in the affinity assay based on surface plasmon resonance (SPR) technology. […] Rmax represents the maximal feasible SPR signal generated by an interaction between a ligand-analyte pair and is represented in response units (RU).

hPVRIG-ECD-his [2] = molecular target: T2, hPVRIG-ECD-his (human, UniProt Q6DKI7 41-171); assay: blocking ELISA: hPVRIG-His coated, antibody mixed with PVRL2-biotin at 1 ug/mL; % inhibition of PVRL2 binding
T2 construct: Acrobiosystems PVG-H52H4; also called hPVRIG-His; human PVRIG-His; not shown: His tag
T2 sequence: T1 sequence

[3] = molecular target: T1, human PVRIG recombinant protein; assay: ELISA, chimeric antibody on recombinant human PVRIG
[4] = molecular target: T1, human PVRIG recombinant protein; assay: SPR, antibody captured via anti-human Fc, human PVRIG analyte; remark: listed apart in the source
Description: Chimeric anti-PVRIG antibodies were generated in human IgG1 format and characterized for binding kinetics by surface plasmon resonance (SPR) assays using BIAcore™ T-200 (GE Life Sciences). […] Then a serial dilution of human or Cyno PVRIG protein was flowed over the chip surface and changes in surface plasmon resonance signals were analyzed to calculate the association rates (kₒₙ) and dissociation rates (koff) by using the one-to-one Langmuir binding model (BIA Evaluation Software, GE Life Sciences). The equilibrium dissociation constant (KD) was calculated as the ratio koff/kₒₙ.

[5] = molecular target: T3, human PVRIG expressed on cells (human, UniProt Q6DKI7 41-326); assay: flow cytometry on Jurkat cells expressing human PVRIG, anti-hFc-AF647 detection
T3 construct: Jurkat cells engineered to express human PVRIG; also called hPVRIG-Jurkat; native human PVRIG
T3 sequence: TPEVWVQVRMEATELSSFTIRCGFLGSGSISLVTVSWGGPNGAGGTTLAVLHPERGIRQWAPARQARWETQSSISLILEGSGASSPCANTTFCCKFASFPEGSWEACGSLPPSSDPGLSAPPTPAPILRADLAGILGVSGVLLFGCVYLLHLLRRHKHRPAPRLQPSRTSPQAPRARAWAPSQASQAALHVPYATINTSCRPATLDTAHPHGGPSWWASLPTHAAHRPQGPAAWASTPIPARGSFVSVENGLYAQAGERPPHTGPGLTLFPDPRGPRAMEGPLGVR
Description: (§1) To evaluate the binding activity of anti-PVRIG antibodies to native PVRIG on living cells, Jurkat cells were engineered to express human PVRIG. Jurkat cells expressing human PVRIG were seeded in 96 well plates, and were incubated with serially diluted anti-PVRIG antibodies. […] EC50 values for dose dependent binding to human native PVRIG were determined by fitting the dose response data to the four-parameter logistic model with GraphPad Prism™.

hPVRIG-ECD-his [6] = molecular target: T2, hPVRIG-ECD-his; assay: competition ELISA, antibody against PVRL2 on coated human PVRIG
[7] = molecular target: T3, human PVRIG expressed on cells; assay: FACS on human PVRIG-expressing cells
[8] = molecular target: T4, Cyno PVRIG expressed on HEK293 cells (cynomolgus monkey); assay: flow cytometry on 293T cells expressing cyno PVRIG, anti-hFc-AF647 detection
T4 construct: also called native Cyno PVRIG
T4 chain: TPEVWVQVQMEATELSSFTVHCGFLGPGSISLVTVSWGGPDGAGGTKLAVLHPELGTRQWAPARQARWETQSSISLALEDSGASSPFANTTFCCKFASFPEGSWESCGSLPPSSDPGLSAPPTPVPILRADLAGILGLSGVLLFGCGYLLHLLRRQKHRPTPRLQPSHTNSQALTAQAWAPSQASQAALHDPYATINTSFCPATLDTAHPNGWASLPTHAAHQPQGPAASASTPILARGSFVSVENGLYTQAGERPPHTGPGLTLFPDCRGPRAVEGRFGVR

hPVRIG-ECD-his [9] = molecular target: T2, hPVRIG-ECD-his; assay: blocking ELISA: hPVRIG-His coated, antibody mixed with PVRL2-biotin at 1 ug/mL; % inhibition of PVRL2 binding; remark: listed apart in the source
[10] = molecular target: T1, human PVRIG recombinant protein; assay: SPR, antibody captured via anti-human Fc, human PVRIG analyte; remark: listed apart in the source
Source text: For affinity determination, antibodies were captured by anti-human Fc antibodies, and used in the affinity determination based on surface plasmon resonance (SPR) technology.

[11] = molecular target: T3, human PVRIG expressed on cells; assay: flow cytometry on Jurkat cells expressing human PVRIG, anti-hFc-AF647 detection; remark: listed apart in the source
Description: as §1, with “to native human PVRIG on” for “to native PVRIG on”

[12] = molecular target: T3, human PVRIG expressed on cells; assay: flow cytometry on Jurkat cells expressing human PVRIG, anti-hFc-AF647 detection [panel A]
Description: as §1, with “expressing” for “expressing human”, “plates” for “plates,”

[13] = molecular target: T4, Cyno PVRIG expressed on HEK293 cells; assay: flow cytometry on 293T cells expressing cyno PVRIG, anti-hFc-AF647 detection [panel A]
Description: (§2) To evaluate the binding activity of anti-PVRIG antibodies to native Cyno PVRIG on living cells. HEK293 cells were engineered to express Cyno PVRIG. HEK293 cells transfected with Cyno PVRIG were seeded in 96 well plates and were incubated with a serial dilution of anti-PVRIG antibodies. […] EC50 values for dose dependent binding to Cyno native PVRIG were determined by fitting the dose response data to the four-parameter logistic model with GraphPad Prism™.

[14] = molecular target: T1, human PVRIG recombinant protein; assay: SPR, antibody captured via anti-human Fc, human PVRIG analyte; remark: listed apart in the source
Source text: For affinity determination, anti-PVRIG antibodies were captured by anti-human Fc antibodies, and used in the affinity assay based on surface plasmon resonance (SPR) technology.

hPVRIG-ECD-his [15] = molecular target: T2, hPVRIG-ECD-his; assay: blocking ELISA: hPVRIG-His coated, antibody mixed with PVRL2-biotin at 1 ug/mL; % inhibition of PVRL2 binding [panel A]
[16] = molecular target: T3, human PVRIG expressed on cells; assay: flow cytometry on Jurkat cells expressing human PVRIG, anti-hFc-647 detection [panel B]
Description: as §1, with “expressing” for “expressing human”, “plates” for “plates,”

[17] = molecular target: T4, Cyno PVRIG expressed on HEK293 cells; assay: flow cytometry on HEK293 cells expressing cyno PVRIG, anti-hFc-647 detection [panel B]
Description: as §2

B1: BGA12 (antibody, V domains shown)
VH: QVQLQQSGPEVVRPGVSVKISCKGSGYTFTDYAMHWVKQSHGKSLEWIGVVLTHNDNTNYNQKFKAKATMTVDRSSSTAYMELARLTSEDSAIYYCAREVYYDFDDGNYFPMDYWGQGTSVTVSS
VL: DIVMSQSPSSLAVSVGEKVTMSCKSSQSLLYSDNQKNYLAWYQQKPGQSPKLLIYWASTRESGVPVRFTGSGSGTDFTLTISSVKAEDLAVYYCQQYYSYHTFGGGTKLEIK
- Kd [1]: 0.0684 nM
- koff [1]: 0.00157 s⁻¹
- kon [1]: 2.29e+07 M⁻¹ s⁻¹
- IC50 (read off the curve) (hPVRIG-ECD-his [2]): ~0.6 µg/mL
- EC50 [3]: 0.126 nM
- Kd [4]: 0.0684 nM
- koff [4]: 0.00157 s⁻¹
- kon [4]: 2.29e+07 M⁻¹ s⁻¹
- EC50 (read off the curve) [5]: ~0.007 µg/mL
- IC50 (hPVRIG-ECD-his [6]): 0.15 nM
- PVRIG/PVRL2 blocking Emax (% Inhibition) (hPVRIG-ECD-his [6]): 91.9%
- EC50 [7]: 0.05 nM
- binding Emax (MFI) [7]: 1180 MFI

B2: BGA502 (antibody, V domains shown)
VH: QVQLVQSGAEVKKPGASVKVSCKASGYSFTGYFLNWVRQAPGQGLEWIGRISPYQGDTFYNQKFKGRVTMTTDKSTSTAYMELRSLRSDDTAVYYCGRSGSFTLFYALDYWGQGTLVTVSS
VL: DIVMTQSPSSLAVSLGERATINCKSSQSLFHSGNQKNYLAWYQQKPGQSPKLLIYWASTRESGVPDRFSGSGSGTDFTLTISSLQAEDVAVYYCQQYYSYPITFGQGTKLEIK
notes: Humanized BGA50
- EC50 (read off the curve) [8]: ~0.007 µg/mL
- IC50 (read off the curve) (hPVRIG-ECD-his [9]): ~1 µg/mL
- Kd [10]: 0.103 nM
- koff [10]: 0.000486 s⁻¹
- kon [10]: 4.71e+06 M⁻¹ s⁻¹
- EC50 (read off the curve) [11]: ~0.01 µg/mL

B5: BGA121 (antibody, V domains shown)
VH: QVQLVQSGAEVKKPGASVKVSCKASGYTFTDYAMHWVRQAPGQSLEWMGVVLTHNDNTNYNQKFKARVTMTVDTSASTAYMELSSLRSEDTAVYYCAREVYYDFDDGNYFPMDYWGQGTLVTVSS
VL: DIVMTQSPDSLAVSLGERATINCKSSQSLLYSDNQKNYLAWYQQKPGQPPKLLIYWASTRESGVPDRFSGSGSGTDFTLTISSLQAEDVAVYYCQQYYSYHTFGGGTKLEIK
notes: Humanized BGA12
- Kd [1]: 0.0524 nM
- koff [1]: 0.00122 s⁻¹
- kon [1]: 2.33e+07 M⁻¹ s⁻¹
- IC50 (read off the curve) (hPVRIG-ECD-his [2]): ~0.6 µg/mL
- EC50 (read off the curve) [5]: ~0.007 µg/mL

B6: BGA122 (antibody, V domains shown)
VH: B5 VH
VL: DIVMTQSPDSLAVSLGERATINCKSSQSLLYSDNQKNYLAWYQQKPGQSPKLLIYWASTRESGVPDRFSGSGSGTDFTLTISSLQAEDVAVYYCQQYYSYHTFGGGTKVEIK
notes: Humanized BGA12; also called BGA122-WT
- Kd [1]: 0.0488 nM
- koff [1]: 0.00199 s⁻¹
- kon [1]: 4.09e+07 M⁻¹ s⁻¹
- IC50 (read off the curve) (hPVRIG-ECD-his [2]): ~0.6 µg/mL
- EC50 (read off the curve) [5]: ~0.007 µg/mL

B7: BGA50 (antibody, V domains shown)
VH: EVQLQQSGPEPVKPGASVKISCKASGYSFTGYFLNWVKQSHGKSLEWIGRISPYNGDTFYNQKFKGKATLTVDKSSSTAHMELLSLTSEDSAVYYCGRSGSFTLFYAMDYWGQGTSVTVSS
VL: DIVMSQSPSSLAVSVGENITMTCKSSQSLFHSGNQKNYLAWYQQKPGQSPKLLIYWASTRESGVPDRFTGSGSETDFTLTISSVKAEDLAVYFCQQYYSYPITFGAGTKLELK
notes: also called BGA50-WT
- EC50 (read off the curve) [8]: ~0.02 µg/mL
- EC50 [3]: 0.105 nM
- IC50 (read off the curve) (hPVRIG-ECD-his [9]): ~1 µg/mL
- Kd [4]: 0.147 nM
- koff [4]: 0.000652 s⁻¹
- kon [4]: 4.45e+06 M⁻¹ s⁻¹
- IC50 (hPVRIG-ECD-his [6]): 1.09 nM
- PVRIG/PVRL2 blocking Emax (% Inhibition) (hPVRIG-ECD-his [6]): 95.3%
- EC50 [7]: 0.273 nM
- binding Emax (MFI) [7]: 2610 MFI
- Kd [10]: 0.0907 nM
- koff [10]: 0.000519 s⁻¹
- kon [10]: 5.72e+06 M⁻¹ s⁻¹
- EC50 (read off the curve) [11]: ~0.03 µg/mL

The remaining lines, values ahead:

- EC50 (read off the curve) [8]: ~0.007 µg/mL
- IC50 (read off the curve) (hPVRIG-ECD-his [9]): ~0.8 µg/mL
- Kd [10]: 0.12 nM
- koff [10]: 0.000438 s⁻¹
- kon [10]: 3.66e+06 M⁻¹ s⁻¹
- EC50 (read off the curve) [11]: ~0.01 µg/mL
B3: BGA503 (antibody, V domains shown)
VH: B2 VH with T72V
VL: B2 VL
notes: Humanized BGA50

- EC50 (read off the curve) [8]: ~0.01 µg/mL
- IC50 (read off the curve) (hPVRIG-ECD-his [9]): ~1 µg/mL
- Kd [10]: 0.136 nM
- koff [10]: 0.000436 s⁻¹
- kon [10]: 3.21e+06 M⁻¹ s⁻¹
- EC50 (read off the curve) [11]: ~0.01 µg/mL
B4: BGA501 (antibody, V domains shown)
VH: B2 VH with L108I
VL: B2 VL
notes: Humanized BGA50; also called BGA501-WT

- EC50 (read off the curve) [12]: ~0.03 µg/mL
- EC50 (read off the curve) [13]: ~0.03 µg/mL
- Kd [14]: 0.0646 nM
- koff [14]: 0.000211 s⁻¹
- kon [14]: 3.26e+06 M⁻¹ s⁻¹
- IC50 (read off the curve) (hPVRIG-ECD-his [15]): ~0.4 µg/mL
B8: BGA382 (antibody, V domains shown)
VH: EVQLVQSGAEVKKPGASVKVSCKASGYTFTDYWIYWVRQAPGQGLEWMGTIDTSDHKTSYNQKFRGRVTMTRDTSTSTVYMELSSLRSEDTAVYYCARDFIITVNYPVVDYWGQGTLVTVSS
VL: QNVLTQSPATLSLSPGERATLSCSAGSSVNYLHWFQQKPGQAPRLLIYSTSNLASGVPARFSGSGSGTDYTLTISSLEPEDFAVYYCQQRSSLPFTFGQGTKLEIK
notes: Humanized BGA38

- EC50 (read off the curve) [16]: ~0.03 µg/mL
- Kd [14]: 0.0998 nM
- koff [14]: 0.000649 s⁻¹
- kon [14]: 6.51e+06 M⁻¹ s⁻¹
- EC50 (read off the curve) [17]: ~0.04 µg/mL
B9: BGA383 (antibody, V domains shown)
VH: B8 VH with H56A
VL: B8 VL with N2I, L32M
notes: Humanized BGA38
